Here are results for one molecule from publication PMC4876634 (Nature chemical biology, 2016).

Numbering of substitutions follows the chain as printed.

Test [1] addresses T1, Suv39h1, wild type (FLAG-tagged, recombinant human) (human, UniProt O43463 1-412).
T1 sequence: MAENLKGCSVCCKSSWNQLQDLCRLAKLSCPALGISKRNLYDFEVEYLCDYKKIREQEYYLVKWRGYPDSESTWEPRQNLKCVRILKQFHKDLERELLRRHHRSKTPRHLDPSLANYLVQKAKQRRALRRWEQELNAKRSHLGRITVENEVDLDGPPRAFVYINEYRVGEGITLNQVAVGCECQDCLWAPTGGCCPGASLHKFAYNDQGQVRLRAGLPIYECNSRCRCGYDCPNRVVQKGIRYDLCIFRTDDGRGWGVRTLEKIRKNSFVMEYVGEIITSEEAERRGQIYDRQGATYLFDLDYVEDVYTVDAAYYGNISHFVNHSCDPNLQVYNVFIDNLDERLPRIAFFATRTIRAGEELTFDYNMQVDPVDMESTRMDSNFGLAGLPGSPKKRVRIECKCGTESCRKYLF
Put plainly: pull-down.

Test [2] addresses T2, Suv39h1 R24,K27A double mutant (FLAG-tagged) (human, UniProt O43463 1-412, R24A | K27A).
T2 sequence: T1 sequence with R24A, K27A
The test is described as follows: pull-down.

B1: HP1β (human Cbx1), His6-tagged (natural protein)
chain: not shown
As to B1, the binding result in test [1] and in test [2] was “binds” throughout.
